B1: H1.198_L1.1 (XENP32814) (antibody, human IgG1, kappa, V domains shown)
VH: EVQLVESGGGLVQPGGSLRLSCAASGFTFSSFGMHWVRQAPGKGLEWVSYISSGSSIIYYADSVKGRFTISRDNAKNSLYLQMNSLRAEDTAVYYCARGGRLVFNPDYWGQGTLVTVSS
VL: DIVMTQSPDSLAVSLGERATINCKSSQSLLHSGNQKNYLTWYQQKPGQPPKLLIYWASTRESGVPDRFTGSGSGTDFTLTISSLQAEDVAVYYCQNDYSYPFTFGSGTKLEIKR
notes: VH substitution W112F/S113N (Xencor #); W100F/S100aN (Kabat); also called mAb C[PD1]_H1.198_L1.1_IgG1_PVA_/S267K
B2: H1.199_L1.1 (XENP32815) (antibody, human IgG1, kappa, V domains shown)
VH: EVQLVESGGGLVQPGGSLRLSCAASGFTFSSFGMHWVRQAPGKGLEWVSYISSGSSIIYYADSVKGRFTISRDNAKNSLYLQMNSLRAEDTAVYYCARGGRLIFSSDYWGQGTLVTVSS
VL: DIVMTQSPDSLAVSLGERATINCKSSQSLLHSGNQKNYLTWYQQKPGQPPKLLIYWASTRESGVPDRFTGSGSGTDFTLTISSLQAEDVAVYYCQNDYSYPFTFGSGTKLEIKR
notes: VH substitution V111I/W112F/P114S (Xencor #); V99I/W100F/P100bS (Kabat); also called mAb C[PD1]_H1.199_L1.1_IgG1_PVA_/S267K
B3: H1.200_L1.1 (XENP32816) (antibody, human IgG1, kappa, V domains shown)
VH: EVQLVESGGGLVQPGGSLRLSCAASGFTFSSFGMHWVRQAPGKGLEWVSYISSGSSIIYYADSVKGRFTISRDNAKNSLYLQMNSLRAEDTAVYYCARGHRVVFSPDYWGQGTLVTVSS
VL: DIVMTQSPDSLAVSLGERATINCKSSQSLLHSGNQKNYLTWYQQKPGQPPKLLIYWASTRESGVPDRFTGSGSGTDFTLTISSLQAEDVAVYYCQNDYSYPFTFGSGTKLEIKR
notes: VH substitution G108H/L110V/W112F (Xencor #); G96H/L98V/W100F (Kabat); also called mAb C[PD1]_H1.200_L1.1_IgG1_PVA_/S267K
B4: H1.202_L1.1 (XENP32818) (antibody, human IgG1, kappa, V domains shown)
VH: EVQLVESGGGLVQPGGSLRLSCAASGFTFSSFGMHWVRQAPGKGLEWVSYISSGSSIIYYADSVKGRFTISRDNAKNSLYLQMNSLRAEDTAVYYCARGGRLQFTPDYWGQGTLVTVSS
VL: DIVMTQSPDSLAVSLGERATINCKSSQSLLHSGNQKNYLTWYQQKPGQPPKLLIYWASTRESGVPDRFTGSGSGTDFTLTISSLQAEDVAVYYCQNDYSYPFTFGSGTKLEIKR
notes: VH substitution V111Q/W112F/S113T (Xencor #); V99Q/W100F/S100aT (Kabat); also called mAb C[PD1]_H1.202_L1.1_IgG1_PVA_/S267K
B5: H1.204_L1.1 (XENP32820) (antibody, human IgG1, kappa, V domains shown)
VH: EVQLVESGGGLVQPGGSLRLSCAASGFTFSSFGMHWVRQAPGKGLEWVSYISSGSSIIYYADSVKGRFTISRDNAKNSLYLQMNSLRAEDTAVYYCARGGQQVFAPDYWGQGTLVTVSS
VL: DIVMTQSPDSLAVSLGERATINCKSSQSLLHSGNQKNYLTWYQQKPGQPPKLLIYWASTRESGVPDRFTGSGSGTDFTLTISSLQAEDVAVYYCQNDYSYPFTFGSGTKLEIKR
notes: VH substitution R109Q/L110Q/W112F/S113A (Xencor #); R97Q/L98Q/W100F/S100aA (Kabat); also called mAb C[PD1]_H1.204_L1.1_IgG1_PVA_/S267K
B6: H1.205_L1.1 (XENP32821) (antibody, human IgG1, kappa, V domains shown)
VH: EVQLVESGGGLVQPGGSLRLSCAASGFTFSSFGMHWVRQAPGKGLEWVSYISSGSSIIYYADSVKGRFTISRDNAKNSLYLQMNSLRAEDTAVYYCARGGKLVFAPDYWGQGTLVTVSS
VL: DIVMTQSPDSLAVSLGERATINCKSSQSLLHSGNQKNYLTWYQQKPGQPPKLLIYWASTRESGVPDRFTGSGSGTDFTLTISSLQAEDVAVYYCQNDYSYPFTFGSGTKLEIKR
notes: VH substitution R109K/W112F/S113A (Xencor #); R97K/W100F/S100aA (Kabat); also called mAb C[PD1]_H1.205_L1.1_IgG1_PVA_/S267K
B7: H1.206_L1.1 (XENP32822) (antibody, human IgG1, kappa, V domains shown)
VH: EVQLVESGGGLVQPGGSLRLSCAASGFTFSSFGMHWVRQAPGKGLEWVSYISSGSSIIYYADSVKGRFTISRDNAKNSLYLQMNSLRAEDTAVYYCARGGRLVLSPDYWGQGTLVTVSS
VL: DIVMTQSPDSLAVSLGERATINCKSSQSLLHSGNQKNYLTWYQQKPGQPPKLLIYWASTRESGVPDRFTGSGSGTDFTLTISSLQAEDVAVYYCQNDYSYPFTFGSGTKLEIKR
notes: VH substitution W112L (Xencor #) but W100F in the Kabat column: the two columns disagree; also called mAb C[PD1]_H1.206_L1.1_IgG1_PVA_/S267K
B8: H1.207_L1.1 (XENP32823) (antibody, human IgG1, kappa, V domains shown)
VH: EVQLVESGGGLVQPGGSLRLSCAASGFTFSSFGMHWVRQAPGKGLEWVSYISSGSSIIYYADSVKGRFTISRDNAKNSLYLQMNSLRAEDTAVYYCARGGRLVFTPDYWGQGTLVTVSS
VL: DIVMTQSPDSLAVSLGERATINCKSSQSLLHSGNQKNYLTWYQQKPGQPPKLLIYWASTRESGVPDRFTGSGSGTDFTLTISSLQAEDVAVYYCQNDYSYPFTFGSGTKLEIKR
notes: VH substitution W112F/S113T (Xencor #); W100F/S100aT (Kabat); also called mAb C[PD1]_H1.207_L1.1_IgG1_PVA_/S267K
B9: H1.208_L1.1 (XENP32824) (antibody, human IgG1, kappa, V domains shown)
VH: EVQLVESGGGLVQPGGSLRLSCAASGFTFSSFGMHWVRQAPGKGLEWVSYISSGSSIIYYADSVKGRFTISRDNAKNSLYLQMNSLRAEDTAVYYCARGGRSVFSPDYWGQGTLVTVSS
VL: DIVMTQSPDSLAVSLGERATINCKSSQSLLHSGNQKNYLTWYQQKPGQPPKLLIYWASTRESGVPDRFTGSGSGTDFTLTISSLQAEDVAVYYCQNDYSYPFTFGSGTKLEIKR
notes: VH substitution L110S/W112F (Xencor #); L98S/SW100F (Kabat); also called mAb C[PD1]_H1.208_L1.1_IgG1_PVA_/S267K
B10: H1.209_L1.1 (XENP32825) (antibody, human IgG1, kappa, V domains shown)
VH: EVQLVESGGGLVQPGGSLRLSCAASGFTFSSFGMHWVRQAPGKGLEWVSYISSGSSIIYYADSVKGRFTISRDNAKNSLYLQMNSLRAEDTAVYYCARGGRFVFSPDYWGQGTLVTVSS
VL: DIVMTQSPDSLAVSLGERATINCKSSQSLLHSGNQKNYLTWYQQKPGQPPKLLIYWASTRESGVPDRFTGSGSGTDFTLTISSLQAEDVAVYYCQNDYSYPFTFGSGTKLEIKR
notes: VH substitution L110F/W112F (Xencor #); L98F/W100F (Kabat); also called mAb C[PD1]_H1.209_L1.1_IgG1_PVA_/S267K

Columns and labels:
human PD-1-His [1] = molecular target: T1, human PD-1-His (human, UniProt Q15116 25-167, limits assumed); test: Octet (BLI), AHC capture of the bivalent mAb, PD-1 in solution
T1 construct: Antigen of the Octet assays; not shown: His tag
T1 sequence (Q15116 25-167 limits assumed): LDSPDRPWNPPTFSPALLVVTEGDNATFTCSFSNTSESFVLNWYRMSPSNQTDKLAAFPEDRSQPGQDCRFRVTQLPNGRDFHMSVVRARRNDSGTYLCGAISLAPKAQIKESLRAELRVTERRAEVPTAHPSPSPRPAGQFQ

human PD-1-His [2] = molecular target: T1, human PD-1-His; test: Octet (BLI), AHC biosensors capture the bivalent mAb, dipped into multiple concentrations of PD-1; KDapp per legend

Binder	koff (human PD-1-His [1]) [s⁻¹]	kon (human PD-1-His [1]) [M⁻¹ s⁻¹]	Kd (human PD-1-His [2]) [nM]
B1	0.00142	78000	18.2
B2	0.00155	99700	15.5
B3	0.00672	336000	20
B4	0.00239	104000	23
B5	0.00404	154000	26.2
B6	0.00296	111000	26.8
B7	0.00505	148000	34.2
B8	0.00151	73600	20.5
B9	0.00509	77700	65.5
B10	0.00489	173000	28.2

Reference: patent publication US20240294593A1 (Genentech, published 2024)
